Assay results from the supplement of paper PMC7877785.
± gives the uncertainty stated by the source.

Experiment: self-splicing fitness, log relative to wild type (ln ratio); higher = more splicing; Tetrahymena group I intron in knt gene, E. coli kanamycin selection, DiMSum; sequences stand for … in CUCUCU…GGAGGGAAAAGUUAUCAGGCAUGCACCUGGUAGCUAGUCUUUAAACCAAUAGAUUGCAUCGGUUUAAAAGGCAAGACCGUCAAAUUGCGGGAAAGGGGUCAACAGCCGUUCAGUACCAAGUCUCAGGGGAAACUUUGAGAUGGCCUUGCAAAGGGUAUGGUAAUAAGCUGACGGACAUGGUCCUAACCACGCAGCCAAGUCCUAAGUCAACAGAUCUUCUGUUGAUAUGGAUGCAGUUCACAGACUAAAUGUCGGUCGGGGAAGAUGUAUUCUUCUCAUAAGAUAUAGUCGGACCUCUCCUUAAUGGGAGCUAGCGGAUGAAGUGAUGCAACACUGGAGCCGCUGGGAACUAAUUUGUAUGCGAAAGUAUAUUGAUUAGUUUUGGAGUACUCGUGGUCG
Procedure, shortened: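 A randomised library covering all eight P1ex-region intron nucleotides was built with the intron in the knt kanamycin-resistance gene on pET-22b(+) and held in E. coli BL21(DE3). Cells were grown overnight at 37°C or 30°C on LB agar, with or without 25 μg/mL kanamycin, plus 100 μg/mL carbenicillin, 50 μM IPTG and 0.2% rhamnose, and pooled colonies were amplicon-sequenced on an Illumina HiSeq 2500. DiMSum fitness is the error-weighted combination of wild-type-normalised replicate fold changes, kanamycin versus none.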

Sequence	self-splicing fitness (ln) (30 °C)	self-splicing fitness (ln) (37 °C)
GACGAGCAAUAUUACGGGCC	-2.12 ± 0.14	-1.63 ± 0.21
CACCAGCAAUAUUACGGGGU	-4.29 ± 0.2	-3.49 ± 0.29
UCAUAGCAAUAUUACGAAGA	-2.06 ± 0.36	-1.56 ± 0.38
AAGAAGCAAUAUUACGUUUU	-3.3 ± 0.11	-1.33 ± 0.091
UUUUAGCAAUAUUACGAAUA	-1.26 ± 0.25	-1.04 ± 0.16
GACGAGCAAUAUUACGCGGG	-3.48 ± 0.47	-2.61 ± 0.36
CUCAAGCAAUAUUACGGGAC	-3.7 ± 0.33	-2.14 ± 0.3
GAAAAGCAAUAUUACGGACA	-0.576 ± 0.056	-0.269 ± 0.064
AUUCAGCAAUAUUACGAUUC	-1.62 ± 0.059	-0.407 ± 0.077
CGUGAGCAAUAUUACGAUAG	-1.13 ± 0.1	-0.217 ± 0.15
GAGCAGCAAUAUUACGAUGG	-3.68 ± 0.25	-2.61 ± 0.31
UCGCAGCAAUAUUACGUCGA	-1.81 ± 0.13	-2.03 ± 0.18
CCACAGCAAUAUUACGUCCA	-3.23 ± 0.19	-1.59 ± 0.15
AAAUAGCAAUAUUACGAUGA	-0.773 ± 0.096	-0.0131 ± 0.11
CAGAAGCAAUAUUACGCACG	-0.596 ± 0.072	-0.261 ± 0.08
AUAGAGCAAUAUUACGCAAU	-0.971 ± 0.14	0.283 ± 0.2
GCUUAGCAAUAUUACGUCCU	-1.01 ± 0.12	-0.274 ± 0.15
UCUAAGCAAUAUUACGCGUU	-4.04 ± 0.34	-2.77 ± 0.38
CAGAAGCAAUAUUACGGGCG	-0.315 ± 0.089	-0.0188 ± 0.11
GUAAAGCAAUAUUACGUCUA	0.446 ± 0.11	0.0339 ± 0.13
CCGUAGCAAUAUUACGGAGG	-3.6 ± 0.17	-3.34 ± 0.25
AUCUAGCAAUAUUACGUUGC	-3.28 ± 0.28	-3.03 ± 0.37
CUCCAGCAAUAUUACGGUGA	-2 ± 0.099	-1.39 ± 0.11
UCGGAGCAAUAUUACGGUAC	-3.19 ± 0.29	-3.59 ± 0.36
UUUGAGCAAUAUUACGUCCA		-0.659 ± 0.37
AUCCAGCAAUAUUACGAACG	-0.746 ± 0.08	-0.625 ± 0.12

Sequence	self-splicing fitness (ln) (30 °C)	self-splicing fitness (ln) (37 °C)
CUUCAGCAAUAUUACGAUGC	-2.93 ± 0.21	-2.23 ± 0.23
UACAAGCAAUAUUACGCCAG	-1.5 ± 0.12	-1.81 ± 0.15
UGUGAGCAAUAUUACGGACG	-0.792 ± 0.12	-0.0879 ± 0.18
CAUCAGCAAUAUUACGGGAU		-1.88 ± 0.22
AUAUAGCAAUAUUACGCUAA	-1.87 ± 0.3	-0.768 ± 0.27
UCGGAGCAAUAUUACGAAUG	-4.16 ± 0.36	-2.15 ± 0.27
UAACAGCAAUAUUACGCGGA	-2.12 ± 0.11	0.0542 ± 0.076
AAAAAGCAAUAUUACGGAAU	-2.25 ± 0.11	-1.36 ± 0.13
AUGUAGCAAUAUUACGAGCU	-0.582 ± 0.14	-0.987 ± 0.2
UUCGAGCAAUAUUACGCGGG	-3.26 ± 0.43	-2.07 ± 0.32
UCGAAGCAAUAUUACGGGUU	-4.87 ± 0.29	-1.47 ± 0.14
CGCAAGCAAUAUUACGUCUA	-1.6 ± 0.13	-0.573 ± 0.11
GUAGAGCAAUAUUACGCCCG	-2.15 ± 0.3	-1.85 ± 0.3
GAUAAGCAAUAUUACGAUAG	-1.66 ± 0.15	-1.95 ± 0.2
GGCAAGCAAUAUUACGAUAA	-1.23 ± 0.11	0.298 ± 0.13
AAUCAGCAAUAUUACGGAUU	-2.89 ± 0.15	-2.74 ± 0.16
GAAUAGCAAUAUUACGAGAU	-3.86 ± 0.23	-1.22 ± 0.14
AAGCAGCAAUAUUACGCUAU	-2.17 ± 0.14	-0.814 ± 0.13
GUGCAGCAAUAUUACGCCGA	-1.56 ± 0.13	-0.832 ± 0.12
AGCUAGCAAUAUUACGGGCA	-0.728 ± 0.12	-0.379 ± 0.14
GGGUAGCAAUAUUACGAUUC	-0.648 ± 0.12	0.268 ± 0.19
CGUGAGCAAUAUUACGAUGU	-1.56 ± 0.16	-2.29 ± 0.25
GGCCAGCAAUAUUACGACAU	-1.21 ± 0.013	-0.437 ± 0.032
CGGUAGCAAUAUUACGGUUU	-3.36 ± 0.16	-1.83 ± 0.15
UUCGAGCAAUAUUACGAGAA		-0.969 ± 0.32
AUGAAGCAAUAUUACGCGUA	-0.537 ± 0.061	-0.226 ± 0.07

Sequence	self-splicing fitness (ln) (30 °C)	self-splicing fitness (ln) (37 °C)
UCGUAGCAAUAUUACGUUCA	-1.39 ± 0.097	-0.421 ± 0.11
CCUUAGCAAUAUUACGAAGU	-2.21 ± 0.15	-1.93 ± 0.12
AUCAAGCAAUAUUACGAGCC	-3.07 ± 0.32	-1.23 ± 0.31
GGACAGCAAUAUUACGCCAU	-1.98 ± 0.26	-2.03 ± 0.46
AGGGAGCAAUAUUACGGCAU	-3.2 ± 0.2	-2.46 ± 0.23
AGUCAGCAAUAUUACGUGAU	-1.52 ± 0.077	-0.719 ± 0.1
GCCAAGCAAUAUUACGAACC	-2.03 ± 0.12	-0.423 ± 0.14
UAUGAGCAAUAUUACGCUAC	-2.79 ± 0.2	-2.25 ± 0.43
GCAUAGCAAUAUUACGUCGA	-1.63 ± 0.15	-0.979 ± 0.15
UUCUAGCAAUAUUACGGGCU	-3.73 ± 0.36	-3.76 ± 0.36
CUUCAGCAAUAUUACGUAGC	-3.62 ± 0.16	-2.95 ± 0.25
CCCUAGCAAUAUUACGACGG	-2.7 ± 0.14	-2.87 ± 0.34
CCAGAGCAAUAUUACGACUG	-1.05 ± 0.1	-0.605 ± 0.15
UUGAAGCAAUAUUACGAGCC	-2.69 ± 0.48	-1.56 ± 0.49
UGUGAGCAAUAUUACGAUAU	-2.31 ± 0.22	-1.66 ± 0.37
CAUCAGCAAUAUUACGCGAU	-3.69 ± 0.23	-2.86 ± 0.32
UCUUAGCAAUAUUACGGGCC	-3.6 ± 0.32	-1.41 ± 0.27
GCAUAGCAAUAUUACGGAAU	-2.21 ± 0.16	-1.84 ± 0.23
GAAGAGCAAUAUUACGCAGG	-1.89 ± 0.32	
CCAAAGCAAUAUUACGUCAA	-3.22 ± 0.14	-2.02 ± 0.13
GUGAAGCAAUAUUACGAAGA	-0.478 ± 0.086	-1.11 ± 0.14
CAGAAGCAAUAUUACGAUGU	-3.37 ± 0.23	-1.97 ± 0.2
CUCUAGCAAUAUUACGAGUC		-2.8 ± 0.3
CCACAGCAAUAUUACGGGCC	-4.14 ± 0.25	-2.5 ± 0.18
